Assay: label from the status in PepcDB records
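Also: failed if final PepcDB status was selected cloned or expressed and not failed if soluble or beyond.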

MGSCMKWDYGEMEDFSVSASGLFITNEGNFQYSNATLSYYDPATCEVENEVFYRANGFKLGDVAQSMVIRDGIGWIVVNNSHVIFAIDINTFKEVGRITGFTSPRYIHFLSDEKAYVTQIWDYRIFIINPKTYEITGYIECPDMDMESGSTEQMVQYGKYVYVNCWSYQNRILKIDTETDKVVDELTIGIQPTSLVMDKYNKMWTITDGGYEGSPYGYEAPSLYRIDAETFTVEKQFKFKLGDWPSEVQLNGTRDTLYWINNDIWRMPVEADRVPVRPFLEFRDTKYYGLTVNPNNGEVYVADAIDYQQQGIVYRYSPQGKLIDEFYVGIIPGAFCWKLEHHHHHH
protein production: failed

MGSDVHVWKTWFITSSDRGFTWSTPAPLVNDDILPRGPVKNKLLLASNGAWIAPGSIESPERWRAFVDRSSDEGKHWSISFVPLEPDNAISGTNVALWDGIKKGRLWECCLENLLRWDGVIQPTLWESSPGHIHMLLRSTRGAIFRSDSIDYGATWSVARATSLPNNNSGIDLVSMQDGTLILALNPVNGNWGKRYPLSLIASQDNGESWLPLLDLESDHGEYSYPAIISEGGIVHITYTWNRKLEHHHHHH
protein production: not failed

MGSEDHGAQNPSCKIMTFRPTMEEFKDFNKYVAYIESQGAHRAGLAKIIPPKEWKPRQTYDDIDDVVIPAPIQQVVTGQSGLFTQYNIQKKAMTVGEYRRLANSEKYCTPRHQDFDDLERKYWKNLTFVSPIYGADISGSLYDDDVAQWNIGSLRTILDMVERECGTIIEGVNTPYLYFGMWKTTFAWHTEDMDLYSINYLHFGEPKSWYAIPPEHGKRLERLAIGFFPGSSQGCDAFLRHKMTLISPIILKKYGIPFSRITQEAGEFMITFPYGYHAGFNHGFNCAESTNFATLRWIDYGKVATQCTCRKDMVKISMDVFVRILQPERYELWKQGKDLTVLDHTRPTALTSPELSSWSASRASLKAKLLRRSHRKRSQPKKPKPEDPKFPGEGTAGAALLEEAGGSVKEEAGPEVDPEEEEEEPQPLPHGREAEGAEEDGRGKLRPTKAKSERKKKSFGLLPPQLPPPPAHFPSEEALWLPSPLEPPVLGPGPAAMEESPLPAPLNVVPPEVPSEELEAKPRPIIPMLYVVPRPGKAAFNQEHVSCQQAFEHFAQKGPTWKEPVSPMELTGPEDGAASSGAGRMETKARAGEGQAPSTFSKLKMEIKKSRRHPLGRPPTRSPLSVVKQEASSDEEASPFSGEEDVSDPDALRPLLSLQWKNRAASFQAERKFNAAAARTEPYCAICTLFYPYCQALQTEKEAPIASLGEGCPATLPSKSRQKTRPLIPEMCFTSGGENTEPLPANSYIGDDGTSPLIACGKCCLQVHASCYGIRPELVNEGWTCSRCAAHAWTAECCLCNLRGGALQMTTDRRWIHVICAIAVPEARFLNVIERHPVDISAIPEQRWKLKCVYCRKRMKKVSGACIQCSYEHCSTSFHVTCAHAAGVLMEPDDWPYVVSITCLKHKSGGHAVQLLRAVSLGQVVITKNRNGLYYRCRVIGAASQTCYEVNFDDGSYSDNLYPESITSRDCVQLGPPSEGELVELRWTDGNLYKAKFISSVTSHIYQVEFEDGSQLTVKRGDIFTLEEELPKRVRSRLSLSTGAPQEPAFSGEEAKAAKRPRVGTPLATEDSGRSQDYVAFVESLLQVQGRPGAPF
protein production: failed

MGSELYLMFFAAITLLAILNPFGNLTQFLAMSDGLPLMLRKKLFRTILYTAFTIVLVFLLSGPLFMNYIFRVSLDDLRVSGGLVLIIMAIKNLLFSTKIATKDFSSYQDMDDKEILRQSLIPMAFPMLVGPGTLASVIVIAEDGGLDVALGGVMIAFIFMFILFHFAATIEKIVGKLILHVFSRIAQVFIVAMGFKMIIVGLKDIFNL
protein production: failed

MGSFHRRTFSYDKLPNEPIRLSVLKLDGSSFDVYVLTSATVGDLKVAIETAFSHVPKKGPSKISWSHVWGHFCLCFGGQKLITDTDCIGNYGMKDGDEVRFKNHVSGNAVLSKGYSRKSKQKNLERVLPKDGDEVLNRIEEIDDSWDDLERGGLVMYKDDDMETSSNESNRSCLSTVHGCCFAFGLKELLGFGNDRAYYSLRDTWRDD
protein production: failed

MGSGPTGLRGTGRQLLALERDVLVLSVAMFAFSLGFQMTSRYIPRYMSVLGAGAVAIGLFGAFGNLISALYPYPGGAVSDRIGSRTALTLFGLLSTAGFLIWLFADAFGTVVVPPVGTEREVFGREVVIGWLEPAVVPVGIFLGLVFAQAWKSFGLGATFAIVKQSVSPDQLATGFASTETFRRTAFLLGPLLAAGILAVFTFEVGFRIVLAVAAAFGLVATLAQHFLYDASEDTLGKSFAGVSAVVDDLRSMPSELRPLLVADTLVRFGNGMVYVFFIIVVTEFLEVGVSLPVVGRLSPDAYFGVLLAIEMLVALLIMLPVSRLSRRVGLKPVVAVGFAVYAIFPAVLIYAPDNAAVLALLFAVSGLRFAGLPAHKALIVGPAESGSGGRVTGSYYLVRNVVVIPSAAIGGAIYAVSPETAFLTATAIGLAGLVVFLAFGREFEAAVAG
protein production: failed

MGSMLLNGAKMKYGNLSLKCMVQNQKALNFYLSQGFEIVSQVDDELGGYYYMSFVAQT
protein production: failed

MGSQGGIVSIDAKIDASVMIGKDAVVFPDANIAERACIAEKVCIGNAVRIGKHAMIDHGASIGDRSNIGERSRIYQDSFIGENAVIAARACIGEKVYIGNFVSLAKDSIIDDGVNIGERSSIGERTRIRQGSFIRKGCVIRQRSVIAKRAYIDEGVYIGNVVRILEHHHHHH
protein production: failed

MGSSHHHHHHSSGENLYFQGHMKTADLCDQFLDELQVCELPFQSYGGKRMFSGPIATVDVFEDNVLVREALETVPPGTVLVVDGKGSRRVALLGDRLAQIACERGLAGVIIHGCIRDSAEIGAMPIGVMAIGTCPVKSKKEGKGARDVVLEFGGVRWEPGAYVYADADGVVVANKDLLAKNG
protein production: not failed

MGSTHHHHHHSSGRENLYFQGHMEEEMQRHIKLTPSQTTPVVLVVGDPGRVDKVKMLCDSYVDLAYNREYKSVECTYKGQKFLCVSHGVGSAGCAICFEELMNNGAKVIIRAGSCGSLQPTQMKRGDICICNAAVREDRVSHLMIYSDFPAVADFEVYDTLNKVAQELEVPVFNGISLSSDLYYPHKIIPTRLEDYSKANVAVVEMEVATLMVMGTLRKVKTGGIFIVDGCPLKWDEGDFDNNLVPEKLENMIKISLETCARLAKKY
protein production: not failed

MGSVQLSGSGLVASLPPNHSFSHKTKLNKPNSYFFRSKHNAARTKTVRAISTAPASQPPAADEPDEPPAVDFAFVHSVLLPDGTPDVHWRRANGGQKLRDIMLDSNIELYGPYSKPLSNCAGVGTCATCMVEIVNGKELLNPRTDIEKEKLKRKPKNWRLACQTNVGNPDSTGLVVIQQLPEWKAHEWNIPKNIPNDDDLETST
protein production: failed

MGTEVSTSPTSLIDQTVVPGDVVLDLSNMTNQTIKLGSGLRQDNEVISVMRAGKLRYSKPNKYWVESSHKRYVPRPEDHVLGIVVDCKGENYWIDIKGPQLALLPVLAFEGANRRNYPKFEVSTLLYTRVVKTNTGMNPELSCVDESGKAAGFGPLKDGFMFETSTGLSRMLLSSPTCPVLEALGKKLSFETAFGLNGRCWVHAAAPRIVIIVANALMNSETLSGTQQRIMVEKLLEKISD
protein production: failed

MGTLPARRHIPPWVKVPEDLKDPEVFQVQTRLLKAIFGPDGSRIPYIEQVSKAMLELKALESSDLTEVVVYGSYLYKLRTKWMLQSMAEWHRQRQERGMLKLAEAMNALELGPWMK
protein production: failed

MGTVSKALSLLALFNHGRLEMGLSELTRLSGMNKATVYRMMTELQAAGFVEQMNGDRAYRLGPEVLRLAALREAAVPLLSVSRDVLRRLCDETGETSHMSIQRNGQLTTLTHAYSSHHGTRVAMEDAEILSLHATGSGLAFLAFSSEEVVEHALSAPLIKHTPQTETDPARLRQALAEAQQSGVAESVGGFEADVHSHAAPIFGADQRPIGALAVAAPVSRMTAELKSRVRAALKEAALDLTQRTGGFCPPGYPGAA
protein production: failed

— a protein production outcome set (Wang et al. 2014)
